1 substance from publication PMC6761149 can be followed below.

In assay [1] the target is light-dependent protochlorophyllide oxidoreductase of Thermosynechococcus elongatus BP-1 (TeLPOR) (Thermosynechococcus elongatus BP-1) (UniProt Q8DLC1). The assay is described as follows: AUC; sedimentation velocity with multiwavelength absorbance optics (MWA-AUC), 20 °C, 50 krpm, c(s) model in SEDFIT; apoprotein (no NADPH, no Pchlide), 0.615 mg ml^-1 (1.23 mg ml^-1 diluted to half with reaction buffer).

The target is the same in assay [2]. Description: SAXS; ESRF BM29, 10 °C, 20 mM Tris/HCl pH 7.5, 500 mM NaCl, 20% (v/v) glycerol; apoprotein (no NADPH, no Pchlide), concentration series, apo 2 dataset merged from low and high concentration; dimer content assuming only monomers and dimers.

For “light-dependent protochlorophyllide oxidoreductase of Thermosynechococcus elongatus BP-1 (TeLPOR) (from UniProt Q8DLC1 1-322) (enzyme)”, the percent dimers (apoprotein, without NADPH and Pchlide) in assay [1] turned out to be 3.6%. In assay [2], this substance came in with a dimer content (%) from I(0) (apoprotein, without NADPH and Pchlide) of 0%; a dimer content (%) from Vp (apoprotein, without NADPH and Pchlide) of 1.7%.
